Test results published in publication PMC5651189.

B1: t-Darpp T39A phosphorylation mutant (natural protein)
chain: AYAPPSLKAVQRIAESHLQSISNLNENQASEEEDELGELRELGYPREEDEEEEEDDEEEEEEEDSQAEVLKVIRQSAGQKTTCGQGLEGPWERPPPLDESERDGGSEDQVEDPALSEPGEEPQRPSPSEPGT
B2: Darpp-32 (dopamine- and cAMP-regulated phosphoprotein of 32 kDa) (natural protein)
chain: MDPKDRKKIQFSVPAPPSQLDPRQVEMIRRRRPTPAMLFRLSEHSSPEEEASPHQRASGEGHHLKSKRPNPCAYTPPSLKAVQRIAESHLQSISNLNENQASEEEDELGELRELGYPREEDEEEEEDDEEEEEEEDSQAEVLKVIRQSAGQKTTCGQGLEGPWERPPPLDESERDGGSEDQVEDPALSEPGEEPQRPSPSEPGT

Biological target: PKA regulatory subunit RIα/β (human (endogenous in SK-Br-3)) (UniProt P10644)
Experiment: proximity ligation

PKA regulatory subunit RIα/β (human (endogenous in SK-Br-3)), sequence (P10644 whole entry): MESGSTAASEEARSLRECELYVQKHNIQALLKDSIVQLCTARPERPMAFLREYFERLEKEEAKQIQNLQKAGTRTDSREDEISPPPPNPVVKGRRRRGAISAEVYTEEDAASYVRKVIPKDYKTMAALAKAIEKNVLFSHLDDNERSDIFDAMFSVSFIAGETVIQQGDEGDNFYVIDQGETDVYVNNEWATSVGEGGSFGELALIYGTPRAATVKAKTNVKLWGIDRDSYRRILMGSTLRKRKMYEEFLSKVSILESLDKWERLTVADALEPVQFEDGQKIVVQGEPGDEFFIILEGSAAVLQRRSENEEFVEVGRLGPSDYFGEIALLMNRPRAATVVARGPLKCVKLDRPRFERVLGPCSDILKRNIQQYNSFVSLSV

Row | Binder | fold CICF in SK.tDp^T39A against SK.empty cells [fold] | fold CICF in SK.dDp against SK.empty and SK.tDp cells [fold]
1 | B1 | 3 | 
2 | B2 |  | 4
